In this assay the target is recombinant Dnmt1 protein (Dnmt1^R), not treated with a kinase (human) (UniProt P26358).

This is an account of results in publication PMC2894052.

Sequence of UniProt P26358 (P26358 whole entry): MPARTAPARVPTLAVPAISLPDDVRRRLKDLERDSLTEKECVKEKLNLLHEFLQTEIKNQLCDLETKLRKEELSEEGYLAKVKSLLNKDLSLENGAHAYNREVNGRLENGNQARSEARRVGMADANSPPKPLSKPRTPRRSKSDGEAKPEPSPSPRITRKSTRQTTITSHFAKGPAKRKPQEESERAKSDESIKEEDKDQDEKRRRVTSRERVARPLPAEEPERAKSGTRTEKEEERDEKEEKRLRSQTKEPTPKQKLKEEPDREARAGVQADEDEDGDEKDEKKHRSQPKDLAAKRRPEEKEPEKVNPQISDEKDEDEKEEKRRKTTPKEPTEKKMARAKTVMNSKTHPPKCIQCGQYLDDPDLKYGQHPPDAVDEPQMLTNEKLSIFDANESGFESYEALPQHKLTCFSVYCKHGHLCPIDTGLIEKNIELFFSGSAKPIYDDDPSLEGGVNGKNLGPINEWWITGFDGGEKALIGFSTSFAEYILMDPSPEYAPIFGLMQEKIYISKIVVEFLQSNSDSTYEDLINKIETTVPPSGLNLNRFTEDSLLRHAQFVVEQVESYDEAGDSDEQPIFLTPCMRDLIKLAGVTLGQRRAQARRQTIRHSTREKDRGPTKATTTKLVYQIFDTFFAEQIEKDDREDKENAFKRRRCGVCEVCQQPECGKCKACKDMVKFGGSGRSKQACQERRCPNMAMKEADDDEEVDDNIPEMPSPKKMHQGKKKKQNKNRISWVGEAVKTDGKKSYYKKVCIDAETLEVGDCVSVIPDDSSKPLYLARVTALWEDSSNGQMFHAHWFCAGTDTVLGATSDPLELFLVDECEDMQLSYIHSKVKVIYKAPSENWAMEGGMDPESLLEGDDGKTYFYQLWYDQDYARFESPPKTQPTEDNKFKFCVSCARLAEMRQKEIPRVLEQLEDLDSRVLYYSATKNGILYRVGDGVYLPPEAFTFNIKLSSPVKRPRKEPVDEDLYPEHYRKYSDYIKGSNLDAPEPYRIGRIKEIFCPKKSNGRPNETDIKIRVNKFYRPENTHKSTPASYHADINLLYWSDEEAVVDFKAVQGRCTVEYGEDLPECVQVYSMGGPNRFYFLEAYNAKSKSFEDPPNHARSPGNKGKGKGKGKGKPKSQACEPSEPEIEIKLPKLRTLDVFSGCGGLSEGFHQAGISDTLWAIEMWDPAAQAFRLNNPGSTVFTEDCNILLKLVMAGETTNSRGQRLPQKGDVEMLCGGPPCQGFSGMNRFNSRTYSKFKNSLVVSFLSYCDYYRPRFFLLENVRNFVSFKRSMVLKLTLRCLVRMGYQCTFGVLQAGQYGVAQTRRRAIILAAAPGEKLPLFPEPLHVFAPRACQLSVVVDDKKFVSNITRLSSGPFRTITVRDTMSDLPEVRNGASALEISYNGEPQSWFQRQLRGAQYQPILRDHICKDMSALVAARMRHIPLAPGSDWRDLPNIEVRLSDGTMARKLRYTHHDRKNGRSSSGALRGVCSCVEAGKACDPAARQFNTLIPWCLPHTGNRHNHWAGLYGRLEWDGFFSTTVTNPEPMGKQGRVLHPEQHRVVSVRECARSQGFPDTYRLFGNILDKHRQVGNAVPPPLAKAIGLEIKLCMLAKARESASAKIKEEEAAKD

Turning to “GST-PCNA (from UniProt P12004 1-261) (natural protein)”, the mMTase activity (DMB assay, incorporation of 3H-radiolabelled methyl groups) of Dnmt1 with an equimolar quantity of PCNA, against that of pDnmt1^S127/S143 and pDnmt1^S127 stood at 5 fold.
Turning to “GST-UHRF1 (from UniProt Q96T88 1-793) (natural protein)”, the mMTase activity (DMB assay, incorporation of 3H-radiolabelled methyl groups) of Dnmt1 with an equimolar quantity of UHRF1, against that of pDnmt1^S127/S143 and pDnmt1^S127 was 4 fold.
